Results on four molecules are retold here after patent US20260265348A1 (HEIDELBERG IMMUNOTHERAPEUTICS, published 2026).

Assay [1] addresses T1, recombinant HSV-1F glycoprotein B (gB) ectodomain (aa 30-729), trimeric (HSV-1 strain F, UniProt P06436 30-729).
T1 construct: also called recombinant HSV-1 gB; HSV-1F gB
Briefly: BLI (Octet), biotinylated gB on streptavidin tips, IgG in solution; full IgG, not Fab. Background: Biolayer interferometry detects binding as a change in optical thickness at a sensor tip.

The target of assay [2] is T2, HSV-1F gB R304Q (HDIT101-resistance mutant) (HSV-1 strain F, UniProt P06436 30-903).
T2 construct: also called gB of HSV-1FHDIT101R
Briefly: flow cytometry of HEK293T cells transfected with a gB plasmid, FITC anti-human Fc secondary antibody, iMFI. (Flow cytometry measures light scatter and fluorescence of single cells or particles in a stream.)

Assay [3] has as its target T1, recombinant HSV-1F glycoprotein B (gB) …. Briefly: BLI (Octet), Fab, Kd=kdis/ka.
For assay [4] the target is unchanged. Briefly: BLI (Octet), biotinylated gB on streptavidin tips, Fab dilution series, global 1:1 fit.
Assay [5] has the same target. Briefly: BLI (Octet), biotinylated gB on streptavidin tips, Fab dilution series, global 1:1 fit; Fab; HSV-1F gB.
A further assay addresses HSV-1F gB K320A (HSV-1 strain F, UniProt P06436 30-903). Briefly: cell-based or functional assay.
In assay [6] the target is HSV-1F gB R335Q (HDIT102(H4)-resistant escape mutant) (HSV-1 strain F, UniProt P06436 30-903). Briefly: cell-based or functional assay.
Another assay addresses HSV-1F gB D199A (HSV-1 strain F, UniProt P06436 30-903). Briefly: cell-based or functional assay.
For assay [7], the target named is glycoprotein B (gB) of HSV-2 strain G, full length, wild type (HSV-2 strain G). Briefly: cell-based or functional assay.
For another assay, the target named is HSV-1F gB R335A (HSV-1 strain F, UniProt P06436 30-903). Briefly: cell-based or functional assay.
Assay [8] addresses glycoprotein B (gB) of HSV-1 strain F, full length, wild type (HSV-1 strain F, UniProt P06436 30-903). Briefly: cell-based or functional assay.
Another assay addresses HSV-1F gB K204A (HSV-1 strain F, UniProt P06436 30-903). Briefly: cell-based or functional assay.
The target in assay [9] is T2, HSV-1F gB R304Q (HDIT101-resistance …). Briefly: cell-based or functional assay.
Another assay concerns the target HSV-1F gB Y326A (HSV-1 strain F, UniProt P06436 30-903). Briefly: cell-based or functional assay.

B1: HDIT101, humanized IgG1 MAb2c (antibody, V domains shown)
VH: QVTLKESGPALVKPTQTLTLTCTFSGFSLSTSGMSVGWIRQPPGKALEWLAHIWWNNDKYYKPALKSRLTISKDTSKNQVVLTMTNMDPVDTATYYCARIYYGYRPYAMDYWGQGTLVTVSS
VL: DIVMTQTPLSLPVTPGEPASISCRSSQSIVHSNGNTYLEWYLQKPGQSPQLLIYKVSNRFSGVPDRFSGSGSGTDFTLKISRVEAEDVGVYYCFQGSHVPWSFGQGTKVEIKR
notes: also called MAb hu2c; HDIT101 IgG
As to B1, the koff in assay [1] was roughly 0.0011 s⁻¹. Further, the binding result in assay [2] was “no binding”.

B2: HDIT101 Fab (Fab, V domains shown)
VH: B1 VH
VL: B1 VL
Regarding B2, in assay [3], the Kd was 7.26 nM. Also, the koff in assay [4] is 0.00313 s⁻¹. Moreover, in [5], the kon turned out to be 435000 M⁻¹ s⁻¹.

B3: HDIT102(H4), fully human IgG1 anti-HSV gB antibody (antibody, V domains shown)
VH: EVQLVQSGAEVKTPGASVRVSCKASGHTFRTFDINWVRQAAGQGLEWMGWMSPNSGNTGYARQFQGRVTMTRNISANTAYMELRGLRFDDTAVYYCARGPGSTGTTGSMDVWGQGTTVTVSS
VL: QAGLTQPPSVSVAPGKTARISCGGNNIGSKSVHWYQQKPGQAPVLVIYYDSDRPSGIPERFSGSNSGNTATLTISRVEAGDEADYYCQVWDSGSVVFGGGTKLTVLG
On to B3, for which the “inhibition of gB-mediated cell-cell fusion by HDIT102(H4) (75 µg/ml), relative to wild type gB” value is 90.1 % of WT in the assay with HSV-1F gB K320A; 18.8 % of WT in [6]; 32.9 % of WT in the assay with HSV-1F gB D199A; 19.3 % of WT with HSV-1F gB R335A; 57.3 % of WT with HSV-1F gB K204A; 92.3 % of WT in [9]. For the same molecule, the “inhibition of gB-mediated cell-cell fusion by HDIT102(H4) (75 µg/ml), relative to wild type gB” value with HSV-1F gB Y326A is 72.7 % of WT. For the same molecule, in [7], the “inhibitory concentration for 50% neutralization (IC50) of 100 TCID50 cell-free HSV-2G on Vero cells” value was 12.5 nM. Moreover, the “inhibitory concentration for 50% neutralization (IC50) of 100 TCID50 cell-free HSV-1F on Vero cells” value in assay [8] amounted to 25.5 nM.

B4: HDIT102(H4) Fab (Fab, V domains shown)
VH: B3 VH
VL: B3 VL
notes: also called Fab HDIT102; Fab HDIT102 (H4)
For B4, in assay [3], the Kd came out at 0.0895 nM. In addition, in [5], the koff was found to be 8.85e-05 s⁻¹ and the kon turned out to be 992000 M⁻¹ s⁻¹.

The term koff denotes the rate constant with which the complex falls apart. Broadly, the Kd is the concentration at which binding is half-saturated. The kon is a measure of how fast the partners come together.
